Reference: patent US20040086946A1, “Methods of isolation of active compounds and activated targets” (priority 2002, published 2004)
Values belong to the molecule of their own block, whether it stands above or below them. No end group written: not given here.

Experiments:
scFv-P2Y6 = test: Activation of scFv-P2Y6 in HEK293 cells, aequorin luminescence; type: cell-based, human; conditions: non-anchored agonists
Source text: A fusion protein was constructed between a single chain antibody against fluorescein (Boder et al. (2000) Proc. Natl. Acad. Sci. USA 97:10701-5) (docking domain) and the human P2Y6 receptor (GenBank accession number: NP_004145) (active domain). The target fusion protein, termed scFv-P2Y6, was co-transfected with the calcium-sensitive luminescent protein aequorin into HEK293 cells. After two days, the transfected cells were pre-loaded for two hours with the aequorin substrate coelenterazine (Molecular Probes) and then various amounts of UDP, UTP or ATP were added immediately followed by measurement of luminescence (FIG. 5A). The activation profile of these three agonists on the fusion protein closely mimicked their activation of the unfused P2Y6 receptor (not shown). […] In contrast to ATP alone, an anchored compound, a fluorescein-ATP conjugate (FITC-ATP; Perkin-Elmer), was able to activate the scFv-P2Y6 receptor at low concentrations (FIG. 5B) with a half-maximal stimulation occurring at about 10 nM.

melanocortin receptors = conditions: cited from earlier work
FcR-MC4R = target: T1, FcR-MC4R (Homo sapiens, UniProt P12314+P32245); test: Inhibition by AGRP of FcR-MC4R activation, CRE-luciferase reporter; type: cell-based
T1 construct: extracellular domain (residues 1-292, with its own signal peptide) of human Fc-gammaR1 = CD64 (NM_000566); expressed in transfected cells; host or cells: HEK293
T1 sequence (P12314+P32245 fused): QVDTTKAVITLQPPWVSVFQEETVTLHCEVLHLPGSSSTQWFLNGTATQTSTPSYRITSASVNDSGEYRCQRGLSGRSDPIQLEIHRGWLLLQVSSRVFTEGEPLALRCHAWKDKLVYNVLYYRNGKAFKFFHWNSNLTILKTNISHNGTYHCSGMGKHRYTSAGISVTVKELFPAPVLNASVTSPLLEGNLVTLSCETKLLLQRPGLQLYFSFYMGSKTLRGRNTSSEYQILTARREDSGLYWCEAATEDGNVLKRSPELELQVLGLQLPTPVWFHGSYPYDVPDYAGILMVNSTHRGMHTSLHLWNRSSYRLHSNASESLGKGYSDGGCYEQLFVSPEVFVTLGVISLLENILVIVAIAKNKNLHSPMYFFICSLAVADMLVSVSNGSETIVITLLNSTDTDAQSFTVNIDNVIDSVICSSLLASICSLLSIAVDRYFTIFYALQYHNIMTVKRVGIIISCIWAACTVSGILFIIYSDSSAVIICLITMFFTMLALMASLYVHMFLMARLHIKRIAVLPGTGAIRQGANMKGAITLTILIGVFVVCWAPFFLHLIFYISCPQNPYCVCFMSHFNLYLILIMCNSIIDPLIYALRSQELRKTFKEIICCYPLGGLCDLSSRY
Procedure: Activation of FcR-MC4R was assayed 6 hours after compound addition using a co-transfected CRE-luciferase construct (pCRE-Luc; Stratagene) and measuring luminescence after lysis and addition of the luciferase substrate (Tropix Luciferase Assay Kit).

[1] = target: FcR-MC4R fusion protein (human); test: cell-based or functional assay
Chain of FcR-MC4R fusion protein (human) (P12314 other isoform, or with tags, fused parts or gaps, form in doubt): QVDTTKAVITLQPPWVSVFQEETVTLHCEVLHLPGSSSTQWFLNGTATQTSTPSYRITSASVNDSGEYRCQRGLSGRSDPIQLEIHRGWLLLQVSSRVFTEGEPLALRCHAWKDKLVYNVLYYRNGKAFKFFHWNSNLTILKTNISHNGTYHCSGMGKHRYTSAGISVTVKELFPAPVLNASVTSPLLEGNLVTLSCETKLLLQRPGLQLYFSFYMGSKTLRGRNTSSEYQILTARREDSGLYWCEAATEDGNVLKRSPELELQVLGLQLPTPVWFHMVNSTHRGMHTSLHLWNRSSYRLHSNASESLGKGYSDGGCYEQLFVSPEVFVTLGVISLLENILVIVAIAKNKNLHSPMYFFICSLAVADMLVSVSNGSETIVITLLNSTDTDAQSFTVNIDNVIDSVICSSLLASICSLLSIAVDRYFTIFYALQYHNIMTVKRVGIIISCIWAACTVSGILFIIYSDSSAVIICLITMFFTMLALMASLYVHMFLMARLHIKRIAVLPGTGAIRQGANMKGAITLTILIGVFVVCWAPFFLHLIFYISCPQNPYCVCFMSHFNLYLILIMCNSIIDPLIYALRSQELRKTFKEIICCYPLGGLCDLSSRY

[2] = target: FcR-MC4R fusion protein (human); test: cell-based or functional assay; remark: listed apart in the source
[3] = system: Alpha1-mc4r, Alpha2-MC4R, OGH-MC4R and HCG-MC4R; test: Glycoprotein hormone subunit-based extracellular 2-hybrid screen, CRE-luciferase reporter in HEK293 cells; type: cell-based; conditions: relative to no ligand control; two days after transfection
Chain of Alpha1-mc4r, Alpha2-MC4R, OGH-MC4R and HCG-MC4R (P32245 whole entry): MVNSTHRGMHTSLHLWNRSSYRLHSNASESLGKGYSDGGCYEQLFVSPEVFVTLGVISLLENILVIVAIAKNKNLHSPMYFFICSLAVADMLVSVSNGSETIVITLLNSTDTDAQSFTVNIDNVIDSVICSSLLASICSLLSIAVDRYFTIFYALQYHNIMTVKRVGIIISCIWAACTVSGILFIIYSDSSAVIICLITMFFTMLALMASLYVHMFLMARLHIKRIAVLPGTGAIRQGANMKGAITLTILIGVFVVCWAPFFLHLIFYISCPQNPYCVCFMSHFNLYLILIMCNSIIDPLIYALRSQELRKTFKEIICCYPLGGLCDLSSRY
Procedure: Signal sequences were included at the beginning of each construct.
Two days after transfection, the activity of the target fusion protein was measured by assaying luciferase activity as relative light units (Y axis, FIG. 7) on a luminometer.

Molecule: Nc1ncnc2c1ncn2[C@@H]1O[C@H](COP(=O)(O)OP(=O)(O)OP(=O)(O)O)[C@@H](O)[C@H]1O [ATP]
activation of scFv-P2Y6 (relative potency in words) (scFv-P2Y6): required much higher concentrations

Molecule: O=c1ccn([C@@H]2O[C@H](COP(=O)(O)OP(=O)(O)O)[C@@H](O)[C@H]2O)c(=O)[nH]1 [UDP]
activation of scFv-P2Y6 (relative potency in words) (scFv-P2Y6): most potent activator

Molecule: O=c1ccn([C@@H]2O[C@H](COP(=O)(O)OP(=O)(O)OP(=O)(O)O)[C@@H](O)[C@H]2O)c(=O)[nH]1 [UTP]
activation of scFv-P2Y6 (relative potency in words) (scFv-P2Y6): required much higher concentrations

Molecule: His Phe Arg Trp [HFRW]
activation of melanocortin receptors (melanocortin receptors): fully activate melanocortin receptors, but only at very high concentrations

Molecule: agouti-related protein (SSRRCVRLHESCLGQQVPCCDPCATCYCRFFNAFCYCRKLGTAMNPCSRT; UniProt O00253 83-132, looked up) [AGRP, known antagonist of the MC4 receptor]
effect of increasing amounts of inhibitor on stimulation by HFRW-Fc (FcR-MC4R; FcR-MC4R activated with anchored agonist HFRW-Fc): dramatically reduce the maximal stimulation levels | effect of increasing amounts of inhibitor on α-MSH dose response (FcR-MC4R; FcR-MC4R activated with natural agonist α-MSH): shift the dose response curve of α-MSH progressively to the right

amount of compound for half-maximal stimulation of MC4R (CRE-luciferase) [1]: 100 fold less
Molecule: α-MSH-Fc (from UniProt P01189 138-150) (Fc fusion)

half maximal level of the response (activation of MC4R, CRE-luciferase reporter, transiently transfected HEK293 cells) [2]: < 1 nM
Molecule: HFRW-Fc (Fc fusion, part only; not given: Fc and linker, not shown: a dimerising Fc or GST, also: Fc junction, isotype and linker not given here) [HFRW-Fc]

B1: alpha2: glycoprotein hormone subunit alpha2 as anchor component fused to HFRW via a 13 amino acid spacer (protein)
chain: QEAVIPGCHLHPFNVTVRSDRQGTCQGSHVAQACVGHCESSAFPSRYSVLVASGYRHNITSVSQCCTISGLKKVKVQLQCVGSRREELEIFTARACQCDMCRLSRY
binding between anchor and docking glycoprotein hormone subunits, seen as increased MC4R activity [3]: binds to OGH, hCG, and itself
